Reference: US20230203162A1 (NUMAB THERAPEUTICS, published 2023)

Key:
[1] = target: T1, plasma-membranous human MSLN on cell lines (H226, HPAC, H292, OVCAR-3, MeT-5A) (human, UniProt Q13421 296-598); experiment: cELISA on H226 cells, HRP-Protein L
T1 construct: whole, on cells; also called human MSLN on H226 cells; mesothelin on target cells

[2] = target: T2, recombinant human MSLN (purchased from Peprotech) (human, UniProt Q13421 296-598, limits assumed); experiment: SPR, MSLN immobilized on CM5, scFv as analyte, 1:1 Langmuir
T2 construct: Bought protein; also called recombinant human mesothelin

[3] = target: T3, cynomolgus monkey MSLN on recombinant CHO cell line (cynomolgus monkey); experiment: cELISA on CHO cells expressing cynomolgus monkey MSLN, HRP-Protein L
T3 construct: whole, on cells; also called plasma-membranous cynomolgus monkey MSLN

[4] = target: T4, recombinant cynomolgus monkey MSLN (purchased from Sino Biological) (cynomolgus monkey); experiment: SPR, cynomolgus MSLN immobilized on CM5, scFv as analyte, 1:1 Langmuir
T4 construct: Bought protein

[5] = target: biotinylated MSLN (human MSLN in the MSLN/MUC16 competition ELISA) (human, UniProt Q13421 296-598, limits assumed, biotinylated); experiment: competition ELISA, scFv titrated with biotinylated MSLN; competitor coated MUC16
[6] = target: T1, plasma-membranous human MSLN on cell …; experiment: cell-based or functional assay
[7] = target: soluble mesothelin (sMSLN); experiment: cell-based or functional assay
[8] = target: T1, plasma-membranous human MSLN on cell …; experiment: cell-based or functional assay; remark: listed apart in the source
[9] = target: T1, plasma-membranous human MSLN on cell …; experiment: cell-based or functional assay; remark: listed apart in the source
[10] = target: T1, plasma-membranous human MSLN on cell …; experiment: cell-based or functional assay; remark: listed apart in the source
[11] = target: T1, plasma-membranous human MSLN on cell …; experiment: cell-based or functional assay; remark: listed apart in the source
[12] = target: T1, plasma-membranous human MSLN on cell …; experiment: cell-based or functional assay; remark: listed apart in the source
[13] = target: T1, plasma-membranous human MSLN on cell …; experiment: cell-based or functional assay; remark: listed apart in the source
[14] = target: soluble mesothelin (sMSLN); experiment: cell-based or functional assay; remark: listed apart in the source
[15] = target: T5, human recombinant CD3ε protein (Sino Biological) (human, UniProt P07766 23-126); experiment: SPR, CD3ε amine-coupled to CM5, antibody injected
T5 construct: Bought protein; also called recombinant human CD3ε; human CD3ε

[16] = target: T1, plasma-membranous human MSLN on cell …; experiment: flow cytometry on H226 cells, protein L-PE, 4PL fit
[17] = target: T1, plasma-membranous human MSLN on cell …; experiment: flow cytometry on H292 cells, protein L-PE, 4PL fit
[18] = target: T1, plasma-membranous human MSLN on cell …; experiment: flow cytometry on HPAC cells, protein L-PE, 4PL fit
[19] = target: T1, plasma-membranous human MSLN on cell …; experiment: flow cytometry on Met-5A cells, protein L-PE, 4PL fit
[20] = target: human serum albumin (hSA, Sigma-Aldrich A3782) (human, UniProt P02768 25-609); experiment: SPR, hSA amine-coupled to CM5, antibody injected, pH 5.5, 1:1 Langmuir
[21] = target: T5, human recombinant CD3ε protein (Sino …); experiment: SPR, CD3ε amine-coupled to CM5, antibody injected; footnote: ka1 of a two-state fitting model
[22] = target: T5, human recombinant CD3ε protein (Sino …); experiment: SPR, CD3ε amine-coupled to CM5, antibody injected; footnote: kd1 of a two-state fitting model
[23] = target: T2, recombinant human MSLN (purchased from …); experiment: SPR (Biacore T200), human MSLN; which of the two formats (MSLN immobilized / antibody captured) not given

B1: anti-MSLN scFv PRO1783 (scFv)
scFv: DIQMTQSPSSLSASVGDRVTITCQASQNIYSNLAWYQQKPGKAPKLLIYDASDLASGVPSRFSGSGSGTDFTLTISSLQPEDFATYYCQQVRSSSDIDNPFGTGTKVTVLGGGGGSGGGGSGGGGSGGGGSQVQLVESGGGLVQPGGSLRLSCAASGFSLSSYAMGWVRQAPGKGLEWIGYISTINNTYYASWAKGRFTISRDNSKNTVYLQMNSLRAEDTAVYYCAREIRSGWVDYGFSIWGQGTLVTVSS
notes: also called 54-01-G02-sc01
Question: Which EC50 [1] does the source give for B1 here?
Answer: 1440 pM

Question: What about the “rel. EC50 (EC50, Amatuximab/EC50, scFv)” value [1] of the same binder?
Answer: 0.16 ratio

Question: And the “rel. Maximum binding (OD450-690 nm, scFv/OD450-690 nm, Amatuximab)” value (“rel. Maximum binding” for short) [1]?
Answer: 0.57 ratio

Question: What about the Kd [2] of the same binder?
Answer: 2910 pM

Question: And the koff [2]?
Answer: 0.00227 s⁻¹

Question: What about the kon [2] of the same binder?
Answer: 780000 M⁻¹ s⁻¹

Question: What about the EC50 [3] of the same binder?
Answer: 12000 pM

Question: And the “rel. EC50 (EC50, Amatuximab/EC50, scFv)” value [3]?
Answer: 0.03 ratio

Question: And the “rel. Maximum binding” value [3]?
Answer: 0.89 ratio

Question: What about the Kd [4] of the same binder?
Answer: 30600 pM

Question: And the koff [4]?
Answer: 0.0527 s⁻¹

Question: And the kon [4]?
Answer: 1.72e+06 M⁻¹ s⁻¹

Question: And the IC50 [5]?
Answer: 500 pM

Question: What about the “Maximum inhibition at highest sample conc.” value [5] of the same binder?
Answer: 99.2%

Question: And the “rel. IC50 (IC50, Amatuximab/IC50, scFv)” value [5]?
Answer: 0.03 ratio

B2: PRO1872 (scMATCH3, MSLNlow KD×CD3×hSA) (other)
chain: DVVMTQSPSSLSASVGDRVTITCQASQIISSRSAWYQQKPGQPPKLLIYQASKLASGVPSRFSGSGSGTDFTLTISSLQPEDFATYYCQCTYIDSNFGAFGCGTKLTVLGGGGGSEVQLVESGGGLVQPGGSLRLSCAASGFSLSSYDMSWVRQAPGKGLAWIGASYASGPTYYASWAKGRFTISRDNSKNTVYLQMNSLRAEDTATYFCARGGWTGTSHSNIWGQGTLVTVSSGGGGSGGGGSGGGGSGGGGSDIQMTQSPSSLSASVGDRVTITCQSSQSVFSNNYLAWFQQKPGQSPKRLIYSASTLASGVPSRFSGSGSGTDFTLTISSLQPEDFATYYCLGSYACSSADCYVFGTGTKVTVLGGGGGSEVQLVESGGGLVQPGGSLRLSCAASGFSFSSSYWICWVRQAPGKCLEWVGCVFTGDGTTYYASWAKGRFTISRDNSKNTVYLQMNSLRAEDTATYFCARPVSVYYYGMDLWGQGTLVTVSSGGGGSGGGGSDIQMTQSPSSLSASVGDRVTITCQASESIGNYLAWYQQKPGKAPKLLIYSASTLASGVPSRFSGSGSGTDFTLTISSLQPEDFATYYCQSTDYGDSYIFGTGTKVTVLGGGGGSGGGGSGGGGSGGGGSEVQLVESGGGLVQPGGSLRLSCAASGISVSNDYYMCWVRQAPGKGLEWIGCISTYIGNTHYASWAKGRFTISRDNSKNTVYLQMNSLRAEDTAVYYCAKNAGYPGYRYAIDLWGQGTLVTVSS
notes: also called MSLN.CD3
Question: Which “fold killing potency against PRO2000, H292 cells” value [6] does the source give for B2 here?
Answer: 7 fold

Question: What about the “fold killing potency against PRO2000, MeT-5A cells” value [6] of the same binder?
Answer: 16 fold

Question: What about the “fold lower H226 killing potency against PRO2000, no sMSLN” value [6] of the same binder?
Answer: 20 fold

Question: What about the “fold lower H226 killing potency against PRO2100, no sMSLN” value [6] of the same binder?
Answer: 10 fold

Question: What about the “fold reduction of H226 killing potency with 500 ng/ml sMSLN” value [7] of the same binder?
Answer: 106 fold

Question: And the “shift of H226 killing potency with 100 ng/ml sMSLN” value [7]?
Answer: 10 fold

Question: And the “EC50 CD8+ T cell activation, H226 cells” value [8]?
Answer: 0.09 pM

Question: What about the “EC50 CD8+ T cell activation, Met-5A cells” value [8] of the same binder?
Answer: 10.9 pM

Question: What about the “EC50 target cell killing, H226 cells” value [8] of the same binder?
Answer: 5.31 pM

Question: What about the “EC50 target cell killing, Met-5A cells” value [8] of the same binder?
Answer: 8.88 pM

Question: And the “EC50 CD8+ T cell activation, H292 cells” value [9]?
Answer: 34.1 pM

Question: And the “EC50 CD8+ T cell activation, HPAC cells” value [9]?
Answer: 47.2 pM

Question: And the “EC50 target cell killing, H292 cells” value [9]?
Answer: 91 pM

Question: And the “EC50 target cell killing, HPAC cells” value [9]?
Answer: 30.3 pM

Question: What about the “EC50 H226 target cell killing, 50 ng/ml soluble mesothelin” value [10] of the same binder?
Answer: 636 pM

Question: What about the “EC50 H226 target cell killing, 500 ng/ml soluble mesothelin” value [10] of the same binder?
Answer: 4650 pM

Question: What about the “EC50 H226 target cell killing, no mesothelin” value [10] of the same binder?
Answer: 43.9 pM

Question: What about the “EC50 CD8+ T cell activation with H226 cells, 50 ng/ml MSLN” value [11] of the same binder?
Answer: 200 pM

Question: And the “EC50 CD8+ T cell activation with H226 cells, 500 ng/ml MSLN” value [11]?
Answer: 1120 pM

Question: What about the “EC50 CD8+ T cell activation with H226 cells, no MSLN” value [11] of the same binder?
Answer: 22.9 pM

Question: And the “EC50 target cell killing, H226 cells, 100 ng/ml sMSLN” value [12]?
Answer: 130 pM

Question: What about the “EC50 target cell killing, H226 cells, no sMSLN” value [12] of the same binder?
Answer: 13.4 pM

Question: And the “max. killing, H226 cells, 100 ng/ml sMSLN” value [12]?
Answer: 60.7%

Question: What about the “max. killing, H226 cells, no sMSLN” value [12] of the same binder?
Answer: 54%

Question: And the “Fold-diff Window (mean Met-5A EC50 / mean H226 EC50)” value [13]?
Answer: 1.1 fold

Question: What about the “average mean H226 EC50, cell killing (LDH release)” value [13] of the same binder?
Answer: 120 pM

Question: What about the “average mean Met-5A EC50, cell killing (LDH release)” value [13] of the same binder?
Answer: 138 pM

Question: What about the “Delta 0-50 ng/mL sMSLN (x-fold change in H226 killing potency)” value [14] of the same binder?
Answer: 8.5 fold

Question: What about the “Delta 0-500 ng/mL sMSLN (x-fold change in H226 killing potency)” value [14] of the same binder?
Answer: 78.2 fold

Question: And the Kd [15]?
Answer: 12100 pM

Question: What about the EC50 [16] of the same binder?
Answer: 1570 pM

Question: What about the “max. binding (MFI)” value [16] of the same binder?
Answer: 467000 MFI

Question: What about the EC50 [17] of the same binder?
Answer: 709 pM

Question: And the “max. binding (MFI)” value [17]?
Answer: 12200 MFI

Question: What about the EC50 [18] of the same binder?
Answer: 2160 pM

Question: What about the “max. binding (MFI)” value [18] of the same binder?
Answer: 33300 MFI

Question: What about the EC50 [19] of the same binder?
Answer: 194 pM

Question: And the “max. binding (MFI)” value [19]?
Answer: 11200 MFI

Question: And the Kd [20]?
Answer: 175 pM

Question: What about the koff [20] of the same binder?
Answer: 6.39e-05 s⁻¹

Question: What about the kon [20] of the same binder?
Answer: 366000 M⁻¹ s⁻¹

Question: What about the kon [21] of the same binder?
Answer: 293000 M⁻¹ s⁻¹

Question: And the koff [22]?
Answer: 0.00508 s⁻¹

Question: And the Kd [23]?
Answer: 187 pM

Question: And the koff [23]?
Answer: 4.96e-05 s⁻¹

Question: What about the kon [23] of the same binder?
Answer: 265000 M⁻¹ s⁻¹

B3: reference anti-MSLN scFv PRO1795 (scFv)
scFv: DIQMTQSPSSLSASVGDRVTITCQASESIGNYLAWYQQKPGKAPKLLIYSASTLASGVPSRFSGSGSGTDFTLTISSLQPEDFATYYCQSTDYGDSYIFGTGTKVTVLGGGGGSGGGGSGGGGSGGGGSEVQLVESGGGLVQPGGSLRLSCAASGISVSNDYYMCWVRQAPGKGLEWIGCISTYIGNTHYASWAKGRFTISRDNSKNTVYLQMNSLRAEDTAVYYCAKNAGYPGYRYAIDLWGQGTLVTVSS
notes: also called 54-22-H03-sc01
Question: With B3 as the binder, how does the EC50 [1] read?
Answer: 250 pM

Question: What about the “rel. EC50 (EC50, Amatuximab/EC50, scFv)” value [1] of the same binder?
Answer: 0.98 ratio

Question: And the “rel. Maximum binding” value [1]?
Answer: 0.71 ratio

Question: And the Kd [2]?
Answer: 321 pM

Question: What about the koff [2] of the same binder?
Answer: 0.000183 s⁻¹

Question: And the kon [2]?
Answer: 568000 M⁻¹ s⁻¹

Question: What about the EC50 [3] of the same binder?
Answer: 760 pM

Question: What about the “rel. EC50 (EC50, Amatuximab/EC50, scFv)” value [3] of the same binder?
Answer: 0.7 ratio

Question: What about the “rel. Maximum binding” value [3] of the same binder?
Answer: 0.81 ratio

Question: And the Kd [4]?
Answer: 1080 pM

Question: And the koff [4]?
Answer: 0.0011 s⁻¹

Question: And the kon [4]?
Answer: 1.02e+06 M⁻¹ s⁻¹

Question: And the IC50 [5]?
Answer: 20 pM

Question: What about the “Maximum inhibition at highest sample conc.” value [5] of the same binder?
Answer: 99%

Question: And the “rel. IC50 (IC50, Amatuximab/IC50, scFv)” value [5]?
Answer: 0.87 ratio
